Measurements reported in article PMC2908683.

Legend:
Test in all cases: immobilized peptide pulldown, SILAC LC-MS/MS
Conditions in all cases: reference: unphosphorylated peptide; sites Y595
PLCγ1 = PLCγ1 (UniProt P19174)
Nck2 = Nck2 (UniProt O43639)
SLP-76 = SLP-76 (UniProt Q13094)
Nck1 = Nck1 (UniProt P16333)

Measured: fold change

ADAP 586-600 (from UniProt O15117) pY595 peptide
stronger: all assays above
